Reference: article PMC10164081
Where no end group is shown, it is not given here.

Experiments:
[1] = target: purified Ric-8B (peptide-binding thermal shift assay) (mouse) (UniProt Q80XE1); assay: differential scanning fluorimetry
Gαolf (human) = Gαolf (human) (UniProt P38405)
Chain of Gαolf (human) (P38405 whole entry): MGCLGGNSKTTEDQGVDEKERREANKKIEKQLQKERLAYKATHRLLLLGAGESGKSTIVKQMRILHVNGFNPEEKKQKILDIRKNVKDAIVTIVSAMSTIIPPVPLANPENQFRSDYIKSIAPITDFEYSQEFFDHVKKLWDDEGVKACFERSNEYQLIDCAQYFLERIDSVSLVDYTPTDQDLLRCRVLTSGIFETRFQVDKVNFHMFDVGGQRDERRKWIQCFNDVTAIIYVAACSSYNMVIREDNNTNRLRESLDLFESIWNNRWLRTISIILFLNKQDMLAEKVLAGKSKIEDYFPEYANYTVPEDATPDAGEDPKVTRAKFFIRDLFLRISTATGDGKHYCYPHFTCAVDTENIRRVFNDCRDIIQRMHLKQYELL

| maximal thermal shift (ΔTm) [1] | folding of the Gαolf-RLuc sensor (luminescence) in RIC-8B knockout HEK293T cells (Gαolf (human)) | Binder |
| --- | --- | --- |
| 4.8 °C |  | NDCRDIIQRMHLRQLMLQ-NH2 [Gαs/Gα13 C-term chimera amidated peptide] |
|  | 20 % reduction | Ric-8B F126A (natural protein) MDEERALYIVRAGEAGAIERVLRDYSDKHRATFKFESADEDKRKKLCEGIFKVLVKEVPTTCQVSCLEVLRILSRDKKILVPVTTKENMQILLRLAKLHESDDSLEKVSEFPVIVESLKCLCNIVANSQMAQQLSLELNLAAKLCNLLRKCKDRKFINDIKCFDLRLLFVLSLLHTDIRSQLRYELQGLPLLTQILESAFSIKWTDEYESAIDHNGPPLSPQETDCAIEALKALFNVTVDSWKVHKESDSHQFRVMAAVLRHCLLIVGPTEDKTEELHSNAVNLLSNVPVSCLDVLICPLTHEETAQEAATLDELPSDKTTEKDTALKNSTMVYNGMNMEAIHVLLNFMEKRIDKGSSYREGLTPVLSLLTECSRAHRNIRKFLKDQVLPPLRDVTNRPEVGSTVRNKLVRLMTHVDLGVKQIAAEFLFVLCKERVDSLLKYTGYGNAAGLLAARGLLAGGRGDNWYSEDEDTDTEEYKNAKP |
|  | 59 % decrease | Ric-8B R166A (natural protein) MDEERALYIVRAGEAGAIERVLRDYSDKHRATFKFESADEDKRKKLCEGIFKVLVKEVPTTCQVSCLEVLRILSRDKKILVPVTTKENMQILLRLAKLHESDDSLEKVSEFPVIVESLKCLCNIVFNSQMAQQLSLELNLAAKLCNLLRKCKDRKFINDIKCFDLALLFVLSLLHTDIRSQLRYELQGLPLLTQILESAFSIKWTDEYESAIDHNGPPLSPQETDCAIEALKALFNVTVDSWKVHKESDSHQFRVMAAVLRHCLLIVGPTEDKTEELHSNAVNLLSNVPVSCLDVLICPLTHEETAQEAATLDELPSDKTTEKDTALKNSTMVYNGMNMEAIHVLLNFMEKRIDKGSSYREGLTPVLSLLTECSRAHRNIRKFLKDQVLPPLRDVTNRPEVGSTVRNKLVRLMTHVDLGVKQIAAEFLFVLCKERVDSLLKYTGYGNAAGLLAARGLLAGGRGDNWYSEDEDTDTEEYKNAKP |
